From publication PMC9177810, “Allosteric interactions prime androgen receptor dimerization and activation”
One block for each molecule: values may come before it.

Experiments:
[1] = biological target: Recombinant mouse AR lacking the N-terminus (mouse); assay: cryo-EM structure; Grafix cross-linked complex of ΔNTD AR, DHT, ARE35 DNA and ERG (fraction 11); three states (Entrenched, Splayed, Divorced) at 11.4, 9.1 and 9.4 Å; LBD and DBD X-ray coordinates docked
AR-AR18Linker (mouse) = AR-AR18Linker (mouse) (UniProt P19091); assay: fluorescence polarization; settings: 150 mM NaCl, 40 mM Tris pH 8.0, 1 mM TCEP, 20 uM DHT, 10% glycerol, 0.01% NP40, on ice; FP 100 nM DNA, 0-4 uM protein; EMSA 50 nM DNA, 250 nM protein
Chain of AR-AR18Linker (mouse) (P19091 whole entry): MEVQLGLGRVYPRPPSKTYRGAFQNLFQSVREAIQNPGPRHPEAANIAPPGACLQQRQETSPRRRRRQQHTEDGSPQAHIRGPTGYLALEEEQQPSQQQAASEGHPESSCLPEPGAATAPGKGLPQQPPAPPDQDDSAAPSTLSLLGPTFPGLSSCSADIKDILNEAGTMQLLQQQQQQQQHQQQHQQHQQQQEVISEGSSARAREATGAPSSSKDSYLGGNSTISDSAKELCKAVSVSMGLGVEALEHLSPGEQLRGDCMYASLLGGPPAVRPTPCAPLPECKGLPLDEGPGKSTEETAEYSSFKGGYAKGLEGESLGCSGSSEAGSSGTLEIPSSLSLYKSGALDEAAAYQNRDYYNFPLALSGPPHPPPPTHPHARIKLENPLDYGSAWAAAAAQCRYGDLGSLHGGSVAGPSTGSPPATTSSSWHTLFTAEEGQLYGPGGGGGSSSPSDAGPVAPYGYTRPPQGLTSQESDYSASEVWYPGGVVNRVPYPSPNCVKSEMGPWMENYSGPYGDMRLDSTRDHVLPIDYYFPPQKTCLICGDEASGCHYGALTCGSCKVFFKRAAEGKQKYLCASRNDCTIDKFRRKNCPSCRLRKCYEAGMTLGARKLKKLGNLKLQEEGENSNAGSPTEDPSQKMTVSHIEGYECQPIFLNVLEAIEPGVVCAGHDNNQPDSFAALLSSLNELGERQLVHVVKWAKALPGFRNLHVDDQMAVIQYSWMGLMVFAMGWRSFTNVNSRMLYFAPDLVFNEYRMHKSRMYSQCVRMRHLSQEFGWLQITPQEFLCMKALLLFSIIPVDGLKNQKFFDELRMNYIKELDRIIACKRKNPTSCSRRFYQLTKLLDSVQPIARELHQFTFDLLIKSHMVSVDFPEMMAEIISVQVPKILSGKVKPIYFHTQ

AR-AR27Linker (mouse) = AR-AR27Linker (mouse) (UniProt P19091); assay: fluorescence polarization; settings: 150 mM NaCl, 40 mM Tris pH 8.0, 1 mM TCEP, 20 uM DHT, 10% glycerol, 0.01% NP40, on ice; FP 100 nM DNA, 0-4 uM protein; EMSA 50 nM DNA, 250 nM protein
Chain of AR-AR27Linker (mouse) (P19091 whole entry, the tested form may be a part): as the sequence (P19091 whole entry) above

[2] = biological target: AR deltaNTD WT;ERG full-length (mouse;human, UniProt P19091;P11308-1 530-899;1-462, |); assay: cryo-EM (9.1-11.4 A); DHT; GraFix cross-linked; AR dimer; EMD-25132, EMD-25133, EMD-25134; 150 mM NaCl, 40 mM Tris pH 8.0, 1 mM TCEP, 20 uM DHT, 10% glycerol, 0.01% NP40, on ice; FP 100 nM DNA, 0-4 uM protein; EMSA 50 nM DNA, 250 nM protein; settings: protein: recombinant;recombinant, tags: Smt3 fusion, removed by Ulp1;Smt3 fusion, chain copies: 2;1, label: unlabeled, blunt
Chain of AR deltaNTD WT;ERG full-length (P19091 530-899, stated change not applied, chain 1 of 2): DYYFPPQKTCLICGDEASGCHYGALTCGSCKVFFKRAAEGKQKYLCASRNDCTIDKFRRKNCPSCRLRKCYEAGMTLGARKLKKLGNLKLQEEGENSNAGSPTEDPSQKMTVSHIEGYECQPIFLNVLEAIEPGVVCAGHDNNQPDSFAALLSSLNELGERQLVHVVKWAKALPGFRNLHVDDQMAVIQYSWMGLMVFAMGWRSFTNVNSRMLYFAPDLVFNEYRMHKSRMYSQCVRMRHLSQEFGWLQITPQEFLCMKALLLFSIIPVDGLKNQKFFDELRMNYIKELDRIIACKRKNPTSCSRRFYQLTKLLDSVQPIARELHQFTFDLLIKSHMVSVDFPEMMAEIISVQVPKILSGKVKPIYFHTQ
Chain of AR deltaNTD WT;ERG full-length (P11308 other isoform, or with tags, fused parts or gaps | | mutant, chain 2 of 2): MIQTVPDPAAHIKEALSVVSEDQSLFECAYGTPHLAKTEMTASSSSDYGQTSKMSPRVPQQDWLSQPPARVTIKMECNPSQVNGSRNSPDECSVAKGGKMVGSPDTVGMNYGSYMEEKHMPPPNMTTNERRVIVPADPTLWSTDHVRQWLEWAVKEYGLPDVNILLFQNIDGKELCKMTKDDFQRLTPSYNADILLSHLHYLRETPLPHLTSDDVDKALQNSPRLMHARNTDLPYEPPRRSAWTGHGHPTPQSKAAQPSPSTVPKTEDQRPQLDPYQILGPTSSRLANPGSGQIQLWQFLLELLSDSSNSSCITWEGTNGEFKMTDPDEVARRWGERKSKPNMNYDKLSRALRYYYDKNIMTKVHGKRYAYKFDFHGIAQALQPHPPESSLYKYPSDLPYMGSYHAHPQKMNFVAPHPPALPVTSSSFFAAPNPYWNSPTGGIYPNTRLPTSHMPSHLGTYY

AR deltaNTD WT = AR deltaNTD WT (mouse, UniProt P19091 530-899); assay: fluorescence polarization; DHT; 150 mM NaCl, 40 mM Tris pH 8.0, 1 mM TCEP, 20 uM DHT, 10% glycerol, 0.01% NP40, on ice; FP 100 nM DNA, 0-4 uM protein; EMSA 50 nM DNA, 250 nM protein; settings: protein: recombinant; tags: Smt3 fusion, removed by Ulp1; chain copies: 2; label: 5' fluorescein (FP); unlabeled (EMSA); blunt
Chain of AR deltaNTD WT (P19091 530-899, stated change not applied): as the sequence (P19091 530-899, stated change not applied, chain 1 of 2) above

stoichiometry N [1]: 2
Molecule: Recombinant mouse AR lacking the N-terminus (domain or fragment)

Molecule: TACCTAGCGTGGCCAGAACATCATGTTCTCCGGTGCGATCCAG (double strand) [ARE/Scr (ARE43)]
binding signal (fold tighter than WT AR) (AR-AR18Linker (mouse)): 5 | binding signal (fold weaker than WT AR) (AR-AR27Linker (mouse)): 3

B1: ARE35 (dsDNA)
DNA 1: TAGCGTGGCCAGAACATCATGTTCTCCGGTGCGAT
DNA 2: ATCGCACCGGAGAACATGATGTTCTGGCCACGCTA
binding result [2]: binds

B2: ARE/Scr (ARE43) (dsDNA)
DNA 1: TACCTAGCGTGGCCAGAACATCATGTTCTCCGGTGCGATCCAG
DNA 2: CTGGATCGCACCGGAGAACATGATGTTCTGGCCACGCTAGGTA
binding result (AR deltaNTD WT): binds
